# Measured values as given in paper PMC10824877, “Assessment of bioactive peptides derived from laminin-111 as prospective breast cancer-targeting agents” (Amino Acids, 2024).
# “Also recorded” adds a separate entry of the source. No end group written: not given here. *: point of attachment. 131I = iodine-131 radiolabel on tyrosine, [131I]*
# Legend:
# [1] = Radiochemical stability in saline; assay type: physicochemical
# Protocol: (§1) The radiochemical stability of the radiopeptides was evaluated in two distinct environments: in saline (n = 3), at room temperature and under refrigeration (4–8 °C), by a period of 48 h after the radiolabeling, and in serum (n = 5), at 37 °C, for up to 24 h after incubation. At predefined time intervals, aliquots were extracted and subjected to ascending chromatography, as previously detailed.
# [2] = Radiochemical stability in serum; assay type: in vitro ADME; conditions: 37 °C, up to 24 h
# Protocol: as §1
substance,measurement,setting,value
[^131I]I-KAFDITYVRLKF: laminin-111 γ1 chain C16 peptide KAFDITYVRLKF radiolabeled with iodine-131 at the central tyrosine residue (KAFDITY(131I)VRLKF),decrease of radiochemical purity,"[1]; after 24 h, room temperature or under refrigeration",approximately 50%
same,radiochemical purity remaining,"[1]; both storage conditions, within the specified time interval",around 50%
same,radiochemical stability in serum,[2],unstable; also recorded: radiochemical instability within the first hour
